Where a chain is given by its changes, count along the chain named.

Broadly, the EC50 is the concentration at which the effect is half-maximal. Read a low EC50 as higher potency in that assay.

The target in assay [1] is DENV3 EDIII, polyhistidine-AviTag (DENV3). Nature of the assay: cross-reactivity ELISA.
Assay [2] has as its target DENV1 E protein (strain PUO-359) on RVPs or on virus (DENV1, strain PUO-359). Description: cell-based or functional assay.
In assay [3] the target is ZIKV E protein (2015 Puerto Rican PRVABC59 strain) on virus (ZIKV, strain PRVABC59). Description: cell-based or functional assay.
Assay [4] has as its target T1, ZIKV E Domain III ([..]), polyhistidine-AviTag, produced in HEK-293-6E cells (ZIKV).
T1 construct: also called ZEDIII; ZIKV EDIII
Nature of the assay: ELISA on coated ZIKV EDIII.

The target of assay [5] is T2, DENV1 EDIII, polyhistidine-AviTag, produced in HEK-293-6E cells (DENV1).
T2 construct: also called EDIII of DENV1
Description: cross-reactivity ELISA. Background: ELISA stands for enzyme-linked immunosorbent assay.

T2 sequence (P17763 577-674, tags left off): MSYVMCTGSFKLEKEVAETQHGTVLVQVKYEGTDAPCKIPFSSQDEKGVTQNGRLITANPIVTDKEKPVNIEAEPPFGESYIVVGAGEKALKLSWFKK

B1: Z006 (MEX105_42) (antibody, V domains shown)
VH: EVQLLESGGGLVQPGGSLRLSCAASGFTFKNYAMAWVRQAPGKGLEWVSLLYNSEESTYYADSVKGRFTISRDNSKNTLFLQMNRLRVEDTAVYFCVRDRSNGWSSINLWGRGTLVTVSS
VL: DIQMTQSPSTLSASVGDRVTMTCRASQTISGWLAWYQQKPGKAPKLLIYQASRLESGIPSRFSGSGSGTEFTLTISSLQPDDVATYYCQQYSTFWTFGLGTKVEIK
Regarding B1, in assay [1], the binding result is “no binding (tested: 10 µg/ml)”.

B2: Z010 (MEX105_88) (antibody, V domains shown)
VH: EVQLLESGGGLVQPGGSLRLSCAASGFTFSNYAMAWVRQAPGKGLEWVSLIYSGDDSTYYADFVKGRFTISRHNSKNTLSLQMNSLRAEDTAIYYCVKDRGTGWSSIVHWGQGTLVTVSS
VL: B1 VL with M21I, G31N, R53S, I58V, V83F, F94Y, L99Q
As to B2, in assay [1], the binding result is listed as “no binding (tested: 10 µg/ml)”.

B3: Z021 (MEX84_p4-23) (antibody, V domains shown)
VH: QVQLQESGPGLVKPSETLSLTCTVSGGSIDTYYWSWIRQTPGKGLEWIGCFYYSVDNHFNPSLESRVTISVDTSKNQFSLKMTSMTASDTAVYYCARNQPGGRAFDYWGPGTLVTVSS
VL: EIVLTQSPATLSLSPGQRATLSCRASQSVSNYFAWYQQKPGQAPRLLIYDTSKRATGTPARFSGSGSGTDFTLTISSLEPEDFAVYYCQERNNWPLTWTFGLGTKVEIK
With B3, the “IC50, DENV1 neutralization (flow cytometry)” value in assay [2] was found to be 0.0101 µg/mL. Besides, the “IC50, plaque reduction neutralization (PRNT)” value in assay [3] amounted to 0.004 µg/mL.

B4: Z038 (BRA12_2) (antibody, V domains shown)
VH: EVQLLESGGGLVQPGGSLRLSCEASGFTFSNYAMNWVRQAPGKGLEWVSTLGATDNSGDSTYYVESAKGRFTISRDNSKNTLYLQMNSLRVEDTAVYFCAKDRTGNIGAGTGYFDKWGQGTLVTVSS
VL: DIQMTQSPSTLSASVGDRVTITCRASHRISGWLAWYQQKPGKAPKLLIYQASGLESGVPSRFSGSGYGTEFTLTISSLQADDFATYYCQQYNNYPWTFGQGTKVEIK
notes: also called BRA12_02
For B4, the binding result in assay [1] is recorded as “no binding (tested: 10 µg/ml)”.

B5: Z032 (BRA112_24) (antibody, V domains shown)
VH: EVQLLESGGRLVQPGGSLTLSCAASGFPFSTYAMSWLRQAPGKGLEWVSGITGDSGSTYYAASVKGRFTISRDNSKNTLYLQMNSLTADDTAVYYCAKDRLHSGLGELFSYWGQGTLVTVSS
VL: DIQMTQSPSTLSASVGDRVNITCRASQSINQWLAWYQQKPGKAPKFLMYKASTLETGVPSRFSGSGSGTEFTLTISSLQPDDFATYYCQHYFSYPWTFGQGTKVEIK
For B5, the EC50 in assay [4] is 0.0195 µg/mL.

B6: Z035 (BRA112_71) (antibody, V domains shown)
VH: EVQLLESGGGLIQPGGSLRLSCAASGFTFSSYAMSWVRQAPGKGLEWVSGISGSGGASDNGASRYYADSVKGRFSISRDNSKNTVYLQMNSLRAEDTAVYYCAKDRLSGGFGELFQKWGQGTLVTVSS
VL: B5 VL with S12A, N20T, S28N, Q31S, M48I, T56S, V58A, F92Y, W96Y
With B6, in assay [1], the binding result is given as “no binding (tested: 10 µg/ml)”.

B7: Z044 (BRA138_46) (antibody, V domains shown)
VH: QVQLVQSGAEVKKPGASVKVSCKASGYTFTSTYIHWVRQAPGQGLEWMGIINPSSSNTNYAQKFQGRVTMTRDTSTSTVYMELSSLRSEDTAVYYCARDFGGYSSSSVSDAFDIWGQGTMVTVSS
VL: QSALTQPASVSGSPGQSITISCTGTSSDVGSFNLVSWYQQHPGKAPKLIIYEVSKRPSGVSNRFSGSKSGNTASLTISGLQAEDEVHYYCCSYAGSSRFVFGTGTKVTVL
On to B7, for which the binding result in assay [5] is given as “no binding (tested: 10 µg/ml)”. The EC50 in assay [4] was above 10 µg/mL.

B8: Z004 (MEX18_89) (antibody, V domains shown)
VH: EVQLLESGGGLVQPGGSLRLTCATSGFTFRDYAMSWVRQAPGKGLEWVSSYSGIDDSTYYADSVKGRFTISRDNSKSTLSLHMNSLRAEDSALYFCAKDRGPRGVGELFDSWGQGTLVTVSS
VL: DIQMTQSPSTLSASVGDRVTITCRASQSISKWLAWYQQKPGKAPKLLIYTTSTLKSGVPSRFSGSGSGTEFTLTISSLQPDDFATYYCQHFYSVPWTFGQGTKVEIK
notes: also called biotin-Z004 (biotinylated form)
On to B8, for which, in assay [2], the “IC50, DENV1 luciferase RVPs” value was found to be 0.0016 µg/mL and the “IC50, flow cytometry with authentic DENV1” value came out at 0.0164 µg/mL. In assay [3], the “IC50, plaque reduction neutralization test (PRNT)” value was found to be 0.0022 µg/mL. Moreover, in assay [1], the binding result is given as “no binding (tested: 10 µg/ml)”.

B9: Z028 (MEX84_p4-53) (antibody, V domains shown)
VH: EVQLLESGGGLVQPGGSLRLSCAASGFTFSAYAMSWVRQAPGKGLEWVSSINGHSDSTYFADSVKGRFTISRDNSKNTLYLQMNSLRAEDTALYYCAKDRLREGIGELFHSWGQGTLVTVSS
VL: B5 VL with V15I, N20T, N30T, Q31P, M48I, K50Q, A51T, T53I, T56S, F92H
B9: the binding result in assay [1] is “no binding (tested: 10 µg/ml)”.

B10: Z001 (MEX18_21) (antibody, V domains shown)
VH: EVQLLESGGGLVQPGGSRRLSCATSGFSFDTYAMSWLRQAPGKGLEWVSSFSGLDDSTYYADSVKGRFTISRDNSKNTLYLQMNSLRAEDTAIYYCAKDRGPRGIGELFDFWGQGTLVTVSS
VL: B8 VL with K31R, T50K, G57E, Y92H
On to B10, for which, in assay [1], the binding result is recorded as “no binding (tested: 10 µg/ml)”.

B11: Z031 (BRA112_46) (antibody, V domains shown)
VH: EVQLLESGGGLVQPGGSLRLSCVASGFTFGSYGMAWVRQAPGKGLEWISSISSIDPSTYYADSVKGRFTVSRDNSENTLYLHMSSLKVEDTAVYFCAKDRLNGGFGELFASWGQGTLVTVSS
VL: DIQMTQSPSTLSASVGDSVTITCRASQSISSWLAWYQQKPGKAPKFLIHKASSLESGIPSRFSGSGSGTEFTLTINNLQPDDFATYYCQHYHSYPWTFGQGTKVEIK
Consider B11, for which the binding result in assay [1] is listed as “no binding (tested: 10 µg/ml)”.

B12: Z054 (BRA138_94) (antibody, V domains shown)
VH: QLQLQESGPRLVKPSETLFLTCTVSGDSISSSSYFWGWIRQPPGKGLEWIGSISYSGSTYYNPSLKSRVTISVDTSKNQFSLKLSSVTAADTVVYYCAKHLYSSSWNIGSSFDSWGPGTLVTVSS
VL: EIVLTQSPATLSLSPGERATLSCRASQSVSIYLAWYQQKPGQAPRLLIYDASSRATGIPARFSGSGSGTDFTLTISSLEPEDFAVYYCQQRSNWPVYTFGQGTKVEIK
Regarding B12, the binding result in assay [5] is listed as “no binding (tested: 10 µg/ml)”. Besides, in assay [4], the EC50 was above 10 µg/mL.

B13: Z040 (BRA12_81) (antibody, V domains shown)
VH: EVQLLESGGGLVQPGGSLRLSCAASGFTFSTYAMSWVRQAPGKGLEWVSAISGSGRSTYYADSVKGRFTISRDNSKNTLYLQMNSLRGEDTAVYYCAKSSGGHNWNYVDYYYGMDVWGQGTTVTVSS
VL: DIQLTQSPSFLSASVGDRVTITCRASQGISSYLAWYQQKPGKAPKLLIYAASTLQSGVPSRFSGSGSGTEFTLTISSLQPEDFATYYCQQLNSYPVTFGPGTKVDIK
Take B13: the binding result in assay [5] is recorded as “no binding (tested: 10 µg/ml)”. The molecule also had an EC50 in assay [4] above 10 µg/mL.

The values are drawn from patent publication US20200147199A1 (ROCKEFELLER UNIVERSITY, published 2020).
